{"source": "patent US20060172407A1", "about": "“Bacterial cell digestion” (priority 2002, published 2006)", "molecules": {"B1": {"name": "domain 3 of EF-Tu: Polypeptide containing solely domain 3 (amino acids 299 to 394) of E. coli EF-Tu, expressed intracellularly from an introduced gene segment (protein)", "chain": "IKPHTKFESEVYILSKDEGGRHTPFFKGYRPQFYFRTTDVTGTIELPEGVEMVMPGDNIKMVVTLIHPIAMDDGLRFAIREGGRTVGAGVVAKVLG"}}, "tested_on": "E. coli", "test": "Tests with E. coli: expression of the domain 3 of EF-Tu in cells, electron microscope pictures", "assay_type": "cell-based, Escherichia coli", "excerpt": "One especially advantageous procedure of the invention is as follows. The DNA segment of the EF-Tu gene of Escherichia coli that codes for the domain 3 is obtained and by means of molecular-genetic techniques is transferred into E. coli cells and expressed. In addition to this recombinant segment that contains solely the domain 3, but not domains 1 and 2 of EF-Tu, the cells as before have the native EF-Tu gene and can express it. The additionally synthesized domain 3 polypeptides, however, compete with the native EF-Tu proteins around the binding sites for the formation of the protofilaments. If a domain-3 polypeptide instead of a native EF-Tu protein is incorporated as a link, this leads to chain rupture as a result of the absence of the second binding site (the domain 2 is essential for chain formation) on the domain-3 polypeptide. […] As a result of the loss of integrity of the cytoskeleton, the cytoplasmic membrane of the cell loses it suspension. […] In this way, the cell wall that in the living bacteria cell is positioned and supported by the cytoplasmic membrane is destroyed (see FIG. 5). The loss of the cell wall and the cytoplasmic membrane means exposure of the contents of the cell so that the cell is lysed (cf. FIGS. 5 and 6). The cell contents can thus be recovered without further cell digestion.\nTests with E. coli, Electron microscope pictures, negative contrasting • a) Intact bacteria cells, containing their chromosome and in addition an empty vector (plasmid) that was used in continuing tests as a vector for introducing the domain-3 gene segment. These cells therefore represent controls. • b) Cells of a young culture. A plasmid that in expressible form contains the gene segment that codes for the domain 3 of EF-Tu had been introduced into these cells before the start of cultivation, in addition to its own native chromosome (that does contain the gene that codes intact EF-Tu). The effect of the expression of this “truncated” gene can be clearly seen: In addition to some cells that appear intact (they are recognizable as already weakened in their cell coating with a more exact analysis), the picture is determined by cell residues that indicate the original cell form, but have neither a wall nor CM. The wall and the CM have lost their suspension by destabilization of the cytoskeleton. […] The onetime cell form can no longer be detected; the cell residues form unorganized aggregations", "key": {"[1]": {"conditions": "ultrathin section, expressed in addition to the cell's own EF-Tu"}}, "data": [{"molecule": "EF-Tu: Full-length bacterial elongation factor EF-Tu introduced by genetic engineering and expressed in addition to the cell's own EF-Tu (control) [reference compound]", "values": [{"measurement": "state of the cells in electron microscope picture", "setting": "[1]", "result": "the cell is intact"}]}, {"molecule": "B1", "values": [{"measurement": "state of the cells in electron microscope picture", "setting": "negative contrasting, cells of a young culture, plasmid expression in addition to native EF-Tu", "result": "The cell contents are exposed"}, {"measurement": "state of the cells in electron microscope picture", "setting": "negative contrasting, old culture", "result": "End stage of the dissolution of the cells"}, {"measurement": "state of the cells in electron microscope picture", "setting": "[1]", "result": "End stage of the dissolution of the cells"}]}]}
